# From US8790905B2, “Fructosyl peptide oxidase” (Kyowa Medex Co., Ltd, priority 2008, dated 2014)
# Numbering of substitutions follows the chain as printed.
# B1: Emericella nidulans KY125 fructosyl peptide oxidase variant FPOX-9 (Ser71Tyr, Ile94Met, Glu104Lys, Lys109Arg, Phe269Ile), SEQ ID NO: 1 (Aspergillus nidulans; … (protein)
# chain: MAPRANTKIIVVGGGGTMGSSTALHLLRAGYTPSNITVLDTYPIPSAQSAGYDLNKIMSIRLRNKPDLQLYLEALDMWKNDPLFKPFFHNVGQMDVSSTEEGIKGLRMRYQSLLDAGIGLEKTNFLLESEDEILAKAPHFTREQIKGWKGLFCGDGGWLAAAKAINAIGQFLKEQGVKFGFGGAGTFKKPLFADADEKTCIGVETVDGTKYYADKVVLAAGAWSSTLVDLEEQCVSKAWVFAHIQLTPAEAAAYKNTPVIYDGDYGFFIEPNENGIIKVCDEFPGFTHFKMHQPYGSPVPKPISVPRSHAKHPTDTYPHASEVTIKKAINRFLPRFNDKELFNRAMCWCTDTADANLLVCEHPRWKGFYLATGDSGHSFKLLPNIGKHVVELLEGRLESVFKDAWRWRPGSGDALKSRRAAPAKDLADMPGWRNEAKM
# B2: Emericella nidulans KY125 fructosyl peptide oxidase variant FPOX-15 (FPOX-9 with Met58Phe, Ser59Gly, Gly105Lys, Gly183Glu, Asn272Asp, Pro302Leu), SEQ ID NO: 3 … (protein)
# chain: B1 chain with M58F, S59G, G105K, G183E, N272D, P302L
# Columns and labels:
# Type in all cases: biochemical, Emericella nidulans KY125
# [1] = substrate: CC(C)[C@H](NCC1(O)OC[C@@H](O)[C@@H](O)[C@@H]1O)C(=O)N[C@@H](Cc1c[nH]cn1)C(=O)O; assay: Km values of the fructosyl peptide oxidase FPOX-9 towards each type of substrate; settings: other: Tris buffer (pH 7.5), 37° C.
# Experimental: (§1) Substrate specificity of the novel FPOX-9 obtained in Example 2 to glycated peptides and/or glycated amino acids were measured using the following Reagent 1 to Reagent 3.
# (§2) Herein, the FPOX-9 solution used was the one prepared in Example 3.
# (§3) As substrates, glycated peptide α-FVH as well as glycated amino acids ε-FK and α-FV were used.
# (§4) α-FVH solutions and α-FV solutions were prepared using Tris buffer to obtain each of the following concentrations in Reagent 3: 0, 0.05, 0.1, 0.5, 1, 2, 5, and 10 mmol/L. ε-FK solutions were prepared using Tris buffer to obtain each of the following concentrations in Reagent 3: 0, 1, 2, 5, 10, 20, 40, 50, 80, and 100 mmol/L.
# (§5) 170 μL of Reagent 2 was added to 10 μL of Reagent 1, and after the reaction at 37° C. for five minutes, 20 μL of Reagent 3 was added, and the reaction was further continued at 37° C. for five minutes, a total of ten minutes. The absorbance at 546 nm (main wavelength)/800 nm (sub-wavelength) for 0 mmol/L at 5.4 minutes after starting the reaction was defined as A0′ (Abs), and the absorbance at 546 nm (main wavelength)/800 nm (sub-wavelength) for each substrate concentration at 5.4 minutes after starting the reaction was defined as A0^x (Abs), and ΔA0 was calculated according to Equation (I). (Mathematical Expression 1) ΔA0=A0^x−A0′(Abs) (I)
# (§6) The absorbance at 546 nm (main wavelength)/800 nm (sub-wavelength) for 0 mmol/L at 6.6 minutes after starting the reaction was defined as As′ (Abs), and the absorbance at 546 nm (main wavelength)/800 nm (sub-wavelength) for each substrate concentration at 6.6 minutes after starting the reaction was defined as As^x (Abs), and ΔAs was calculated according to Equation (II). (Mathematical Expression 2) ΔAs=As^x−As′(Abs) (II)
# (§7) The enzyme activity (U/mL) for each substrate concentration was calculated by substituting the obtained ΔA0 and ΔAs total amount of reaction solution (0.2 mL), molar extinction coefficient of TOOS (39,200), reaction time (1.2 minutes), and the light path length of the reaction cuvette (0.5 cm) into Equation (III). […]
# [2] = substrate: CC(C)[C@H](NCC1(O)OC[C@@H](O)[C@@H](O)[C@@H]1O)C(=O)O; assay: as above; settings: other: Tris buffer (pH 7.5), 37° C.
# Experimental: as §1, §2, §3, §4, §5, §6, §7
# [3] = substrate: N[C@@H](CCCCNCC1(O)OC[C@@H](O)[C@@H](O)[C@@H]1O)C(=O)O; assay: as above; settings: other: Tris buffer (pH 7.5), 37° C.
# Experimental: as §1, §2, §3, §4, §5, §6, §7
# [4] = substrate: CC(C)[C@H](NCC1(O)OC[C@@H](O)[C@@H](O)[C@@H]1O)C(=O)N[C@@H](Cc1c[nH]cn1)C(=O)O; assay: Km values of the fructosyl peptide oxidase FPOX-15 towards each type of substrate; settings: 37° C.
# Experimental: (§8) The substrate specificity of FPOX-15 obtained in Example 2 to glycated peptides and/or glycated amino acids was measured using the following Reagent 1 to Reagent 3.
# (§9) Herein, for the FPOX-15 solution, a solution produced by four-fold dilution of the solution obtained in Example 3 was used.
# as §3
# (§10) α-FVH solutions and α-FV solutions were prepared using distilled water to obtain the following concentrations in Reagent 3: 0, 2, 2.5, 3, and 3.66 mmol/L. ε-FK solution was prepared using distilled water to obtain the following concentrations in Reagent 3: 0, 20, 30, 40, and 50 mmol/L.
# as §5, with “150” for “170”, “5” for “10”, “wavelength)/700” for “wavelength)/800”
# as §6, with “wavelength)/700” for “wavelength)/800”
# (§11) The enzyme activity (U/mL) for each substrate concentration was calculated by substituting the obtained ΔA0 and ΔAs, total amount of reaction solution (0.2 mL), molar extinction coefficient of EMSE (33,800), reaction time (1.2 minutes), and the light path length of the reaction cuvette (0.5 cm) into Equation (III). (Mathematical Expression 3) Enzyme activity(U/mL)={(ΔAs−ΔA0)×total amount of reaction solution(mL)}/{molar extinction coefficient ε/1000×amount of enzyme solution(mL)×0.5×reaction time(min)×light path length(cm)} (III)
# (§12) For each of the substrates α-FVH, ε-FK, and α-FV, a plot was produced with substrate concentration (mmol/L) on the horizontal axis and the corresponding enzyme activity (U/mL) on the vertical axis, and the substrate concentration corresponding to ½ of the maximum enzyme activity was calculated as the Km value (Michaelis constant).
# [5] = substrate: CC(C)[C@H](NCC1(O)OC[C@@H](O)[C@@H](O)[C@@H]1O)C(=O)O; assay: as above; settings: 37° C.
# Experimental: as §8, §9, §3, §10
# as §5, with “150” for “170”, “5” for “10”, “wavelength)/700” for “wavelength)/800”
# as §6, with “wavelength)/700” for “wavelength)/800”
# as §11, §12
# [6] = substrate: N[C@@H](CCCCNCC1(O)OC[C@@H](O)[C@@H](O)[C@@H]1O)C(=O)O; assay: as above; settings: 37° C.
# Experimental: as §8, §9, §3, §10
# as §5, with “150” for “170”, “5” for “10”, “wavelength)/700” for “wavelength)/800”
# as §6, with “wavelength)/700” for “wavelength)/800”
# as §11, §12
# [7] = other: pH 6.0, sodium dihydrogen phosphate, pH 6.0
# [8] = other: pH 7.0, sodium dihydrogen phosphate, pH 7.0
# [9] = other: pH 8.0, sodium dihydrogen phosphate, pH 8.0
Protein,Km [1] [µM],Km [2] [µM],Km [3] [µM],"Km [4, 7] [µM]","Km [4, 8] [µM]","Km [4, 9] [µM]","Km [5, 7] [µM]","Km [5, 8] [µM]","Km [5, 9] [µM]","Km [6, 7] [µM]","Km [6, 8] [µM]","Km [6, 9] [µM]"
B1,500,600,4000,–,–,–,–,–,–,–,–,–
B2,–,–,–,400,500,800,200,300,300,23200,19200,9600
